Holding throughout (assay): SPR
(In general: Surface plasmon resonance follows binding to a sensor surface in real time, without labels.)

Experiment [1] has as its target 2V-BB10-2V (Squalus acanthias).
Experiment [2] has as its target 2V-E06-2V (Squalus acanthias | dogfish).
In experiment [3] the target is 2V-BA11-2V (Squalus acanthias).
Experiment [4] concerns the target 2V-BB11-2V (Squalus acanthias).
For experiment [5], the target named is humanized E06 BA11.
Experiment [6] addresses humanized E06 v2.4-2G.
For experiment [7], the target named is humanized E06 BB11.

Drawing on article PMC5660122 (2017), this text covers Kd and koff for two molecules.

As usually defined, the Kd is the concentration at which binding is half-saturated. A lower Kd goes with higher affinity. As a reminder, the koff is a measure of how fast the partners let go of each other. Lower therefore signals slow dissociation.

B1: cynomolgus serum albumin (natural protein)
chain: DTHKSEVAHRFKDLGEEHFKGLVLVAFSQYLQQCPFEEHVKLVNEVTEFAKTCVADESAENCDKSLHTLFGDKLCTVATLRETYGEMADCCAKQEPERNECFLQHKDDNPNLPPLVRPEVDVMCTAFHDNEATFLKKYLYEVARRHPYFYAPELLFFAARYKAAFAECCQAADKAACLLPKLDELRDEGKASSAKQRLKCASLQKFGDRAFKAWAVARLSQKFPKAEFAEVSKLVTDLTKVHTECCHGDLLECADDRADLAKYMCENQDSISSKLKECCDKPLLEKSHCLAEVENDEMPADLPSLAADYVESKDVCKNYAEAKDVFLGMFLYEYARRHPDYSVMLLLRLAKAYEATLEKCCAAADPHECYAKVFDEFQPLVEEPQNLVKQNCELFEQLGEYKFQNALLVRYTKKVPQVSTPTLVEVSRNLGKVGAKCCKLPEAKRMPCAEDYLSVVLNRLCVLHEKTPVSEKVTKCCTESLVNRRPCFSALELDEAYVPKAFNAETFTFHADMCTLSEKEKQVKKQTALVELVKHKPKATKEQLKGVMDNFAAFVEKCCKADDKEACFAEEGPKFVAASQAALA
For the molecule B1, the Kd in experiment [1] was 5.5 nM; in experiment [2] it was 0.76 nM; in experiment [3], 7.95 nM; in experiment [4], 0.64 nM. The koff in experiment [1] worked out at 0.00439 s⁻¹; in experiment [2], 0.000126 s⁻¹; in experiment [3], 9.48e-05 s⁻¹; in experiment [4], 0.000472 s⁻¹.

B2: rat serum albumin (natural protein)
chain: EAHKSEIAHRFKDLGEQHFKGLVLIAFSQYLQKCPYEEHIKLVQEVTDFAKTCVADENAENCDKSIHTLFGDKLCAIPKLRDNYGELADCCAKQEPERNECFLQHKDDNPNLPPFQRPEAEAMCTSFQENPTSFLGHYLHEVARRHPYFYAPELLYYAEKYNEVLTQCCTESDKAACLTPKLDAVKEKALVAAVRQRMKCSSMQRFGERAFKAWAVARMSQRFPNAEFAEITKLATDVTKINKECCHGDLLECADDRAELAKYMCENQATISSKLQACCDKPVLQKSQCLAEIEHDNIPADLPSIAADFVEDKEVCKNYAEAKDVFLGTFLYEYSRRHPDYSVSLLLRLAKKYEATLEKCCAEGDPPACYGTVLAEFQPLVEEPKNLVKTNCELYEKLGEYGFQNAVLVRYTQKAPQVSTPTLVEAARNLGRVGTKCCTLPEAQRLPCVEDYLSAILNRLCVLHEKTPVSEKVTKCCSGSLVERRPCFSALTVDETYVPKEFKAETFTFHSDICTLPDKEKQIKKQTALAELVKHKPKATEDQLKTVMGDFAQFVDKCCKAADKDNCFATEGPNLVARSKEALA
Take B2: the Kd stood at 130 nM in experiment [5]; 7.64 nM in experiment [6]; 8.29 nM in experiment [7]; 7.6 nM in experiment [2]; 18.7 nM in experiment [3]; 1.49 nM in experiment [4]. The koff worked out at 0.00075 s⁻¹ in experiment [2], 0.00054 s⁻¹ in experiment [3] and 0.0035 s⁻¹ in experiment [4].
